Measured values as given in publication PMC6728052 (PLoS Computational Biology, 2019).
Numbering of substitutions follows the chain as printed.

B1: G6^des1, Fab (Fab, V domains shown)
VH: EVQLVESGGGLVQPGGSLRLSCAASGFTISDYWIHWVRQAPGKGLEWVAGITPAGGYTHYADSVKGRFTISADTSKNTAYLQMNSLRAEDTAVYFCARFVFFLPYAMDYWGQGTLVTVSS
VL: DIQMTQSPSSLSASVGDRVTITCRASQDVSTAVAWYQQKPGKPPKLLIFSASFLFSGVPSRFSGSGSGTDFTLTISSLQPEDFATYYCLQSYTVTPTFGPGTKVEIK
B2: G6^des13, Fab (Fab, V domains shown)
VH: B1 VH
VL: B1 VL with F49Y, F55Y, V94D, P100Q
B3: D44.1^des, Fab (Fab, V domains shown)
VH: QVQLQESGAEVMKPGASVKISCKATGYTFSTYWIEWMKQRPGGGLEYIGEILPGSGSTYYNEKFKGKATFTADTSSNTAYMQLSSLTSEDSAVYYCARGDGYYKYWGQGTTLTVSS
VL: DIELTQSPATLSVTPGDSVSLSCRASQSISNNLHWYQQKSHEPPRLLIKYVSQSVSGIPSRFSGSGSGTDFTLSINSVETEDFGMYFCGQSNSWPRTFGGGTKLEIK

Assays:
[1] = biological target: human Vascular-Endothelial Growth Factor (VEGF) (Homo sapiens, UniProt P15692-4); assay: SPR
[2] = biological target: hen egg-white lysozyme (Gallus gallus, UniProt P00698); assay: SPR
Chain of hen egg-white lysozyme (P00698 19-147): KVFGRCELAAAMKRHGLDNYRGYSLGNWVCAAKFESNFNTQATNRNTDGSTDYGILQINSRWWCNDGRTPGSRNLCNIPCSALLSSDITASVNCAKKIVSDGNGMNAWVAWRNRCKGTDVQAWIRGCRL

Binder | kon [1] [M⁻¹ s⁻¹] | Kd [1] [nM] | koff [1] [s⁻¹] | Kd [2] [nM] | koff [2] [s⁻¹] | kon [2] [M⁻¹ s⁻¹]
B1 | 327000 |  |  |  |  | 
B2 | 530000 | 0.06 | 3.2e-05 |  |  | 
B3 |  |  |  | 15 | 0.00079 | 53000
